Results on two molecules are retold here after PMC7195849 (Science signaling, 2019).

Ends that are not written are not given here. * marks the point of attachment. Biotin = O=C1N[C@H]2[C@H](CS[C@H]2CCCCC(=O)*)N1

In test [1] the target is PKCθ C2 domain, 1-144 (UniProt Q04759). Briefly: ELISA, immobilized biotin-peptide, soluble GST-C2. The following applies: reference: unphosphorylated Y126 peptide; sites Y126. For orientation: In an ELISA, binding on a coated surface is turned into a signal by an enzyme label.
In test [2] the target is T1, GST-PKCθ-C2^WT (GST fusion of the C2 domain of human PKCθ, aa 1–144) (human, UniProt Q04759 1-144).
T1 sequence (looked up): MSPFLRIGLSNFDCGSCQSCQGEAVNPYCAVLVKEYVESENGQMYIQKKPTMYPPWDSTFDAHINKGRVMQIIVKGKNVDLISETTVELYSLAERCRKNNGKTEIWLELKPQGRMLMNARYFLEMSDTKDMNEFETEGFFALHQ
Briefly: ELISA.

“Zap70 (from UniProt P43403) pY126 peptide”: in test [1], the “binding against the reference” value is “stronger”.
As to Biotin-AMVRDYVRQTWK [Zap70 peptide Y126 (non-phosphorylated), N-terminally biotinylated], the binding result in test [2] is recorded as “binds”.
